Measurements taken from patent publication US20200339678A1 (RIGEL PHARMACEUTICALS, published 2020).

T1: His-tagged recombinant Mouse TIGIT (mouse, UniProt P86176 29-148, limits assumed)
T1 construct: coated antigen of the direct ELISA; not shown: His tag
T1 sequence (looked up): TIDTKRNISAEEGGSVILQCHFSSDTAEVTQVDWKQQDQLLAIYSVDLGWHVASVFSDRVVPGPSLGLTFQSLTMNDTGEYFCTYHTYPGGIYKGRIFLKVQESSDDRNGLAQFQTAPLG

T2: His-tagged recombinant Human TIGIT (human, UniProt Q495A1 22-141)
T2 construct: coated antigen of the direct ELISA; not shown: His tag
T2 sequence (looked up): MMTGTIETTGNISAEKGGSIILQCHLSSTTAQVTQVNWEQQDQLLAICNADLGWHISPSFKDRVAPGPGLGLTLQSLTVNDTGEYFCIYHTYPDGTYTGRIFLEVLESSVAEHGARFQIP

T3: biotinylated human TIGIT (human, UniProt Q495A1 22-141, biotinylated (EZ-Link NHS-PEG4-biotin kit))
T3 construct: extracellular domain; also called TIGIT-ECD
T3 sequence (looked up): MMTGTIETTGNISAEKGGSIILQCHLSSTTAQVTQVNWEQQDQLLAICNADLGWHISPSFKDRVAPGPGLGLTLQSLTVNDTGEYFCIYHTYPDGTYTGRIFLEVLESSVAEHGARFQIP

T4: mouse TIGIT-Fc (mouse, UniProt P86176 29-148)
T4 construct: extracellular domain; also called TIGIT-ECD; not shown: Fc
T4 sequence (looked up): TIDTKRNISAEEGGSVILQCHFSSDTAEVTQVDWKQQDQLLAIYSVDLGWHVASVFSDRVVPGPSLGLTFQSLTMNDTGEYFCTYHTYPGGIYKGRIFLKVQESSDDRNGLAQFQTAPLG

T5: human TIGIT fused to a beta galactosidase portion, on YTS cells (YTS_hTIGIT/hGrb2) (human, UniProt Q495A1 22-244)
T5 sequence (looked up): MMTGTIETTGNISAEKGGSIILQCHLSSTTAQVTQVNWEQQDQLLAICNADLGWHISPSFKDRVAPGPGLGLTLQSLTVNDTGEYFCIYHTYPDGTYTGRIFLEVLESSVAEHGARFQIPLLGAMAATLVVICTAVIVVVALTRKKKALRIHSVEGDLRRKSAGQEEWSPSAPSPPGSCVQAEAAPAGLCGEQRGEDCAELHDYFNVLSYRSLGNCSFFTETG


Columns and labels:
[1] = target: T1, His-tagged recombinant Mouse TIGIT; experiment: ELISA
Method: (§1) Binding affinities for antigen binding to anti-TIGIT monoclonal antibodies were determined by ELISA. […] Antibodies to be tested were diluted to 1 μM in PBS buffer containing 1% BSA and diluted 3-fold in a 10-point curve. […] Detection of the secondary antibody was determined using streptavidin-HRP and TMB reagent. All assays were performed at room temperature. Curve-fitting software was used to determine the EC₅₀ for each antibody.

[2] = target: T2, His-tagged recombinant Human TIGIT; experiment: ELISA
Method: as §1

biotinylated human TIGIT = target: T3, biotinylated human TIGIT; experiment: comp. ELISA vs PVR
Method: (§2) Antibodies were serially diluted in a 10-point curve starting at 1 μM in 3-fold steps. […] Units are in microM.

mouse TIGIT-Fc = target: T4, mouse TIGIT-Fc; experiment: comp. ELISA vs PVR
Method: as §2

[3] = target: T5, human TIGIT fused to a beta …; experiment: cell-based or functional assay

Binder | EC50 [1] [nM] | EC50 [2] [nM] | IC50 (biotinylated human TIGIT) [nM] | IC50 (mouse TIGIT-Fc) [nM] | YTS_hTIGI/hGrbs_EFC_Agonism, 221_WT [3] [µM] | YTS_hTIGI/hGrbs_EFC_Antagonism, 221_hPVR/ICAM [3] [µM]
Ab1 (Fab, V domains shown) VH: EVQLLESGGGLVQPGGSLRLSCAASGFTFSSYAMHWVRQAPGKGLEWVSGISSNGGSTSYADSVKGRFTISRDNSKNTLYLQMNSLRAEDTAVYYCARVPYSVWIDYWGQGTLVTVSS VL: not shown | 181 | 40.3 | 89.9 | 632 |  | 
Ab1i3 (antibody, V domains shown) VH: EVQLLESGGGLVQPGGSLRLSCAASGFTFSSYAMHWVRQAPGKGLEWVSGISSNGGSTSYADSVKGRFTISRDNSKNTLYLQMNSLRAEDTAVYYCARVPYSVWIDYWGQGTLVTVSS VL: not shown |  |  |  |  | > 1 | 0.172
Ab1i11 (antibody, V domains shown, mIgG2a of Ab1, W100A) VH: EVQLLESGGGLVQPGGSLRLSCAASGFTFSSYAMHWVRQAPGKGLEWVSGISSNGGSTSYADSVKGRFTISRDNSKNTLYLQMNSLRAEDTAVYYCARVPYSVAIDYWGQGTLVTVSS VL: not shown |  |  | > 1000 | > 1000 |  | 
Ab1i12 (antibody, V domains shown, mIgG2a of Ab1, Y97A) VH: EVQLLESGGGLVQPGGSLRLSCAASGFTFSSYAMHWVRQAPGKGLEWVSGISSNGGSTSYADSVKGRFTISRDNSKNTLYLQMNSLRAEDTAVYYCARVPASVWIDYWGQGTLVTVSS VL: not shown |  |  | > 1000 | > 1000 |  | 
Ab1i6 (antibody, V domains shown, mIgG2a of Ab1, P96A) VH: EVQLLESGGGLVQPGGSLRLSCAASGFTFSSYAMHWVRQAPGKGLEWVSGISSNGGSTSYADSVKGRFTISRDNSKNTLYLQMNSLRAEDTAVYYCARVAYSVWIDYWGQGTLVTVSS VL: not shown |  | 29.4 | 46.9 | > 1000 |  | 
Ab17i1 (antibody, V domains shown, hIgG1 of Ab17) VH: EVQLLESGGGLVQPGGSLRLSCAASGFTFSSYAMSWVRQAPGKGLEWVASIKSSGGNTYYADSVKGRFTISRDNSKNTLYLQMNSLRAEDTAVYYCAREPYSYWMDYWGQGTLVTVSS VL: not shown | 0.1 |  |  | 1.1 | 0.0012 | > 1
Ab1i5 (antibody, V domains shown, mIgG2a of Ab1, I100aA) VH: EVQLLESGGGLVQPGGSLRLSCAASGFTFSSYAMHWVRQAPGKGLEWVSGISSNGGSTSYADSVKGRFTISRDNSKNTLYLQMNSLRAEDTAVYYCARVPYSVWADYWGQGTLVTVSS VL: not shown | 6.8 | 8 | 2.8 | 13.3 |  | 
Ab40i1 (antibody, V domains shown, hIgG1 of Ab40) VH: EVQLLESGGGLVQPGGSLRLSCAASGFTFSSYGMNWVRQAPGKGLEWVAGIKYSSGNKYYADSVKGRFTISRDNSKNTLYLQMNSLRAEDTAVYYCARGPYDVWMDYWGQGTLVTVSS VL: not shown |  | 0.3 | 1.3 | > 1000 | > 1 | 0.0002
Ab53i5 (antibody, V domains shown) VH: EVQLLESGGGLVQPGGSLRLSCAASGFTFSSYGMHWVRQAPGKGLEWVASIKYSSSNKYYADSVKGRFTISRDNSKNTLYLQMNSLRAEDTAVYYCARGPYDVWLDYWGQGTLVTVSS VL: not shown |  | 0.2 | 2.1 | > 1000 | 0.0057 | 0.526
Ab48 (Fab, V domains shown) VH: EVQLLESGGGLVQPGGSLRLSCAASGFTFSSYSMNWVRQAPGKGLEWVANIKSSGSSTSYADSVKGRFTISRDNSKNTLYLQMNSLRAEDTAVYYCARGPYDVWMDYWGQGTLVTVSS VL: not shown | 41.8 | 13.8 | 111 | 64.7 |  | 
Ab1i8 (antibody, V domains shown, mIgG2a of Ab1, S98G) VH: EVQLLESGGGLVQPGGSLRLSCAASGFTFSSYAMHWVRQAPGKGLEWVSGISSNGGSTSYADSVKGRFTISRDNSKNTLYLQMNSLRAEDTAVYYCARVPYGVWIDYWGQGTLVTVSS VL: not shown | 26.3 | 1.7 | 5.8 | 99.3 |  | 
Ab40 (Fab, V domains shown) VH: EVQLLESGGGLVQPGGSLRLSCAASGFTFSSYGMNWVRQAPGKGLEWVAGIKYSSGNKYYADSVKGRFTISRDNSKNTLYLQMNSLRAEDTAVYYCARGPYDVWMDYWGQGTLVTVSS VL: not shown |  | 0.3 | 3.8 | > 1000 | > 1 | 0.0023
Ab16i2 (antibody, V domains shown) VH: EVQLLESGGGLVQPGGSLRLSCAASGFTFSSYSMHWVRQAPGKGLEWVAAIKSSGSSTSYADSVKGRFTISRDNSKNTLYLQMNSLRAEDTAVYYCARVPYDYWLDYWGQGTLVTVSS VL: not shown | 0.5 | 6.4 | 84.6 | 4.1 |  | 
Ab16i1 (antibody, V domains shown) VH: EVQLLESGGGLVQPGGSLRLSCAASGFTFSSYSMHWVRQAPGKGLEWVAAIKSSGSSTSYADSVKGRFTISRDNSKNTLYLQMNSLRAEDTAVYYCARVPYDYWLDYWGQGTLVTVSS VL: not shown | 0.5 | 2.1 | 2.1 | 0.4 |  | 
Ab1i9 (antibody, V domains shown, mIgG2a of Ab1, V95A) VH: EVQLLESGGGLVQPGGSLRLSCAASGFTFSSYAMHWVRQAPGKGLEWVSGISSNGGSTSYADSVKGRFTISRDNSKNTLYLQMNSLRAEDTAVYYCARAPYSVWIDYWGQGTLVTVSS VL: not shown | 2.3 | 0.6 | 2.3 | 9 |  | 
Ab1i7 (antibody, V domains shown, mIgG2a of Ab1, S98A) VH: EVQLLESGGGLVQPGGSLRLSCAASGFTFSSYAMHWVRQAPGKGLEWVSGISSNGGSTSYADSVKGRFTISRDNSKNTLYLQMNSLRAEDTAVYYCARVPYAVWIDYWGQGTLVTVSS VL: not shown | 72.9 | 3.8 | 16.1 | 183 |  | 
Ab53i7 (antibody, V domains shown, hIgG1 of Ab53, S52aY) VH: EVQLLESGGGLVQPGGSLRLSCAASGFTFSSYSMHWVRQAPGKGLEWVASIKYSSSNKYYADSVKGRFTISRDNSKNTLYLQMNSLRAEDTAVYYCARGPYDVWLDYWGQGTLVTVSS VL: not shown |  | 3.2 | 36.3 |  | 0.0681 | 1.93
Ab17i2 (antibody, V domains shown, mIgG2a of Ab17) VH: EVQLLESGGGLVQPGGSLRLSCAASGFTFSSYAMSWVRQAPGKGLEWVASIKSSGGNTYYADSVKGRFTISRDNSKNTLYLQMNSLRAEDTAVYYCAREPYSYWMDYWGQGTLVTVSS VL: not shown | 0.2 |  |  | 1.6 |  | > 1
Ab40i2 (antibody, V domains shown, hIgG1 of Ab40, G33S) VH: EVQLLESGGGLVQPGGSLRLSCAASGFTFSSYSMNWVRQAPGKGLEWVAGIKYSSGNKYYADSVKGRFTISRDNSKNTLYLQMNSLRAEDTAVYYCARGPYDVWMDYWGQGTLVTVSS VL: not shown |  | 0.2 | 2 | > 1000 | 0.0011 | 0.186
Ab53i8 (antibody, V domains shown, mIgG2a of Ab53, S52aY) VH: EVQLLESGGGLVQPGGSLRLSCAASGFTFSSYSMHWVRQAPGKGLEWVASIKYSSSNKYYADSVKGRFTISRDNSKNTLYLQMNSLRAEDTAVYYCARGPYDVWLDYWGQGTLVTVSS VL: not shown |  | 1.7 | 12.5 |  | 0.02 | > 1
